Laboratory results reported in IntAct's records for PubMed 29039417.

B1: BBSome complex member BBS5 (Homo sapiens), Q8N3I7 (parent)
chain: MSVLDALWEDRDVRFDLSAQQMKTRPGEVLIDCLDSIEDTKGNNGDRGRLLVTNLRILWHSLALSRVNVSVGYNCILNITTRTANSKLRGQTEALYILTKCNSTRFEFIFTNLVPGSPRLFTSVMAVHRAYETSKMYRDFKLRSALIQNKQLRLLPQEHVYDKINGVWNLSSDQGNLGTFFITNVRIVWHANMNDSFNVSIPYLQIRSIKIRDSKFGLALVIESSQQSGGYVLGFKIDPVEKLQESVKEINSLHKVYSASPIFGVDYEMEEKPQPLEALTVEQIQDDVEIDSDGHTDAFVAYFADGNKQQDREPVFSEELGLAIEKLKDGFTLQGLWEVMS
partner: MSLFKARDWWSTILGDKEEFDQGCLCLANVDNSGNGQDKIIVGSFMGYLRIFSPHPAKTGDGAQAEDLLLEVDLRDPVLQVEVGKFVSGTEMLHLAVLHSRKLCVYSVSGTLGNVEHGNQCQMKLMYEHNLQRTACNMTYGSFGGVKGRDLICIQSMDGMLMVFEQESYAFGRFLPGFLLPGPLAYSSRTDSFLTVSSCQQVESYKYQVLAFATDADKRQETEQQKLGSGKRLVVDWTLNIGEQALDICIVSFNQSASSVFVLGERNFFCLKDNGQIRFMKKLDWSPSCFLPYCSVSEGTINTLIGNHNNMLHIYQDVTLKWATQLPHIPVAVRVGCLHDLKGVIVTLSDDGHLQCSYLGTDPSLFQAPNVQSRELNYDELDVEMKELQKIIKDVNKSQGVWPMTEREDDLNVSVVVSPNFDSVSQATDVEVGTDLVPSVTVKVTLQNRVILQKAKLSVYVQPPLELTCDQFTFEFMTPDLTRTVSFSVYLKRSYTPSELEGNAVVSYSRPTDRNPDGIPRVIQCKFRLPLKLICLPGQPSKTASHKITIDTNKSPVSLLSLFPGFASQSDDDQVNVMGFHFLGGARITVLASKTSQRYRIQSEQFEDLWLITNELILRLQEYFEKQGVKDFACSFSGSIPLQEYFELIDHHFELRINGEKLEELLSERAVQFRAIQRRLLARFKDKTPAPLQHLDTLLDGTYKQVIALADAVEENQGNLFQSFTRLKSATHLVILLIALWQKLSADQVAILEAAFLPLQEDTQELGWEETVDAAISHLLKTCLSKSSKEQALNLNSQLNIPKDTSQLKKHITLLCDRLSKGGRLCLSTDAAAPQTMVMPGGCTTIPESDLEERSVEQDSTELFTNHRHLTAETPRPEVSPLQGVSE

Variants of: B1
Conditions: with pthb1_human BBS9, Q3SYG4

Variant	effect of a mutation on the interaction
S171K	with no effect
S171E	with no effect
S171A	with no effect
R207A	with no effect
R207E	with no effect
R207K	with no effect
I209E	with no effect
I209A	with no effect
I209K	with no effect
S200K	with no effect
S200E	with no effect
S200A	with no effect
L170A	with no effect
L170E	with no effect
L170K	with no effect
Q205E	with no effect
Q205K	with no effect
Q205A	with no effect
P202A	with no effect
P202E	with no effect
P202K	with no effect
S208K	with no effect
S208E	with no effect

Variant	effect of a mutation on the interaction
S208A	with no effect
S214K	with no effect
S214A	with no effect
S214E	with no effect
Q174A	with no effect
Q174K	with no effect
Q174E	with no effect
Q157E	with no effect
Q157A	with no effect
Q157K	with no effect
N169K	with no effect
N169A	with no effect
N169E	with no effect
K163E	with no effect
K163A	with no effect
W168A	with no effect
W168K	with no effect
W168E	with no effect
I164E	with no effect
I164K	with no effect
I164A	with no effect
F180E	with no effect
F180A	with no effect

Variant	effect of a mutation on the interaction
F180K	disrupting interaction strength
T183A	with no effect
T183E	with no effect
T183K	with no effect
A191K	with no effect
A191E	with no effect
Y161A	with no effect
Y161K	with no effect
Y161E	with no effect
I206E	with no effect
I206K	with no effect
I206A	with no effect
P156K	with no effect
P156A	with no effect
P156E	with no effect
S196K	with no effect
S196A	with no effect
S196E	with no effect
R212A	with no effect
R212E	with no effect
R212K	with no effect
T179A	with no effect
T179E	with no effect

Variant	effect of a mutation on the interaction
T179K	with no effect
W189K	with no effect
W189E	with no effect
W189A	with no effect
V160E	with no effect
V160A	with no effect
V160K	with no effect
N165K	with no effect
N165A	with no effect
N165E	with no effect
F197E	with no effect
F197A	with no effect
F197K	with no effect
S172K	with no effect
S172E	with no effect
S172A	with no effect
I187E	with no effect
I187A	with no effect
I187K	with no effect
H159K	with no effect
H159E	with no effect
H159A	with no effect
G175E	with no effect

Variant	effect of a mutation on the interaction
G175K	with no effect
G175A	with no effect
L204E	with no effect
L204A	with no effect
L204K	with no effect
L177A	with no effect
L177E	with no effect
L177K	with no effect
K215E	with no effect
K215A	with no effect
D195K	with no effect
D195E	with no effect
D195A	with no effect
G166A	with no effect
G166K	with no effect
G166E	with no effect
F181A	with no effect
F181K	with no effect
F181E	with no effect
G178K	with no effect
G178E	disrupting interaction strength
G178A	with no effect
G178R	disrupting interaction strength

Variant	effect of a mutation on the interaction
V188K	with no effect
V188E	with no effect
V188A	with no effect
I211A	with no effect
I211K	with no effect
I211E	with no effect
D173K	with no effect
D173E	with no effect
D173A	with no effect
L155A	with no effect
L155E	with no effect
L155K	with no effect
Y203E	with no effect
Y203A	with no effect
Y203K	with no effect
G217A	with no effect
D213E	with no effect
D213K	with no effect
D213A	with no effect
F216K	with no effect
F216E	with no effect
F216A	with no effect
N198K	with no effect

Variant	effect of a mutation on the interaction
N198A	with no effect
N198E	with no effect
R186A	with no effect
R186E	disrupting interaction strength
R186K	disrupting interaction strength
N194A	with no effect
N194E	with no effect
N194K	with no effect
E158A	with no effect
E158K	with no effect
K210E	with no effect
K210A	with no effect
V167K	with no effect
V167A	with no effect
V167E	with no effect
M193E	with no effect
M193K	with no effect
M193A	with no effect
N192K	with no effect
N192E	with no effect
N192A	with no effect
V185K	with no effect
V185A	with no effect

Variant	effect of a mutation on the interaction
V185E	with no effect
L154K	with no effect
I201E	with no effect
I201A	with no effect
I201K	with no effect
N176K	with no effect
N176E	with no effect
N176A	with no effect
I182K	disrupting interaction strength
I182E	with no effect
I182A	with no effect
D162A	with no effect
D162K	with no effect
D162E	with no effect
H190K	with no effect
H190E	with no effect
H190A	with no effect
N184E	disrupting interaction strength
N184K	with no effect
N184A	with no effect
V199E	with no effect
V199K	with no effect
V199A	with no effect
